The series is described as follows: yeast display, Sf9 membrane polyspecificity reagent, FACS + sequencing; frameworks hold sequencing errors. In short, it runs like this: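 A synthetic nanobody library was expressed on Saccharomyces cerevisiae BJ5465 by galactose induction for 36–48 hours. The library was stained for 1 hour at 4 °C with 10% biotinylated, detergent-solubilized Sf9 membrane reagent and enriched with streptavidin microbeads before FACS. Low and high (top ~1%) gates were set on anti-HA fluorescence for expression and streptavidin fluorescence for reagent binding, and each polyreactivity label reflects the gate of origin.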
On to “QVQLVESGGGIVQAGGSLRLSWAASGFIFNNYAMGWYRQAPGKERELVAAITGGGSTNYADSVKGRFTISRDNAKNTVYLQMNSLKPEDTAVYYCNAEGVWWSTRYDSWGQGTQVTVSS”, for which the “polyreactivity (PSR sort gate)” value is “low polyreactivity”. On to “QVQLVESGGGIVQAGGSLRLSWAASGSINYRNARGCYRQAPGKERELVAAISSDGSTNYADSVKGRFTISRDNAKNTVYLQMNRLKPEDTAVYSCASPWTQILDYWGKGTQVTVSS”, for which the “polyreactivity (PSR sort gate)” value is “low polyreactivity”. Next, “QVQLVESGGGIVQAGGSLRLTCAASGSIFVNNAIGWYIQAPGKERELVADIRRSGGNTYYADSVKGRFTISRDNAKNTVYLQMNSLKPEDTAVYYCNVVRRADSIRAKSRDYWGQGTQVTVSS”: “high polyreactivity”; “QVQLVESGGGIVQAGGSLRLTCAASGSTFEIYAMGWYRQAPGKERELVAAISSGGSTNYADSVKGRFTISRDNAKNTVYLQMNSLKPDDTAVYDCAAVLYSRLYWYRLDYWGQGTQVTVSS”: “low polyreactivity”. In the case of “QVQLVESGGGIVQAGGSLRLTCAASGYIFYSYAMGWYRHAPGKERELVATISSGGSTYYADSVKGRFTISRDNAKNTVYFQMNSLKPEDTAVYYCATDHDIVYNFNRYDYWGQGTQVTVSS” it was “low polyreactivity”; in that of “QVQLVESGGGIVQAGGSLRVSCAASGRTYLRNAMGWSRQAPGKERELVASITSRGGRTYADSVKGRFTISRDNAKNTVYLQMNSLKPEDTAVYYCDARRQAGLRYDYWGQGTQVTVSS”, “high polyreactivity”; in that of “QVQLVESGGGIVQSGGSLRLICAASGGIFKYNAMGWYRQAPGKERELVAAINYSGGRTYYADSVKGRFTISRDNAKNTVYLQMNSLKPEDTAVYYCNALTRGHTGQPYTYDYWGQGTQVTVSS”, “high polyreactivity”. Next, “QVQLVESGGGLAQAGGSLRLSCAASGSTFYSYAMGWYRQAPGKERELVAGITWNDGSTYYADSVKGRFTISRDNAKNTVYLQMNSLKPEDTAVYYCNTDASPYLFDYWGHGTQVTVSS”: “low polyreactivity”; “QVQLVESGGGLDAAGGSLRLSCAASGSTVIAYAMGWYRQAPGKEWELVAVMTSRGGRTYYADSVKGRFTISRDNAKNTVYLQMNSQKPEDTAVYYCATRSYRYLRSYDYWGQGTQVTVSS”: “high polyreactivity”; “QVQLVESGGGLDHAGGSLRLSCADSGRIFNYNAMGWYIQAPGKESELVAAISWDGGSTYYADSVKGRFTISRDNAKNTVYLQINSLKPEDSAVYYCAAQYIWSSYRYYYWGQGTQVTVSS”: “high polyreactivity”. On to “QVQLVESGGGLDHAGGSLRLSCAPSGRIFSVNAMGWYRQAPGKERELVAAITSGDSTNYADSVKGRFTISRDNAKNTVYLQSNSMKQEDTAVYYCNARGSQELWRRKWYHTEYDSWGQGTQVSVSS”, for which the “polyreactivity (PSR sort gate)” value is given as “low polyreactivity”. “QVQLVESGGGLDHARGSLRLICPASGRTFAPYAMGWYRQAPGKERELVARITWSGTDTYYADSVKGRFTISRDNAKNTVYLQMNCLKPDDTAVYYCAADARYSRRYYYWGQGTQVTVSS”: the “polyreactivity (PSR sort gate)” value is “low polyreactivity”. Next, “QVQLVESGGGLDQAGCSLRLSCAASGRIFPYMGWYRQAPGKDRELVAAINASGGRTYYADSVKGRFTISRDNAKNTVYLQMNSLKPEDTAVYYCNAVWSSDTYTHPQYDYWGQGTQVTVSS”: “high polyreactivity”; “QVQLVESGGGLDQAGCSLRLSWAASGITSYYNAMGWYRQAPGKERELVAAITSGGSTYYADSVKGRFTISRDNAKNTVYLQMNSLKPEVTAVYYCARRSRYLWRYDYWGQGTQVTVSS”: “high polyreactivity”; “QVQLVESGGGLDQAGGRLRLSCAASGITFGRNTMGWYRQSPGKERELVAAIDSGGNTYADSVKGRFTISRDNAKNTVYLQMNSLKPEDTAVYYCAVDGGEFSSYGYWGQGTQVTVSS”: “low polyreactivity”. In the case of “QVQLVESGGGLDQAGGSLLLSCAASGSIFNDYAMGWYRQAPGKERELVAAISTSDGSTYYADSVKGRFTISRDNAKNTVYLQMKSLKPEDTAVYYCAVVSDYYYYPPYGYWGQGTQVTVSS” it was “low polyreactivity”; in that of “QVQLVESGGGLDQAGGSLPLRCAATGSIFHDYALGWYSQAPGKERELVAVISTSGGSTYYADSVKGRFTISRDNAKNTVYLQMNSLKPEDTAVYYCNAELSFWALGYDYWGQGTQVTVSS”, “low polyreactivity”; in that of “QVQLVESGGGLDQAGGSLRLICAASGFTITNNAMGWYRQAPGKEREFVAAISASGGSTYYADSVKGRFTISRDNAKNTVYLQMNSLKPEDTAVYYCAVEPVYIVSEVLFDYWGQGTEVTVSS”, “low polyreactivity”.

In the case of “QVQLVESGGGLDQAGGSLRLICAASGFTYPIYAMGWYRQAPGKERELVAAITTRGGRTYYADSVKGRFTISRDNAKNTVYLQMNSLKAEDTAVYYCNALGYAYRLWFGYWGEGTQVTVSS”, the “polyreactivity (PSR sort gate)” value is reported as “high polyreactivity”. “QVQLVESGGGLDQAGGSLRLICAASGITIEYYAMAWYRTAPGKERELVAAISSGGGSTYYADSVKGRFTISRDNAKNSVYLQMISLKPEDTAVYYCAADIVSSPSSYVPPGDYWGQGTQVTVSS”: the “polyreactivity (PSR sort gate)” value is recorded as “low polyreactivity”. In the case of “QVQLVESGGGLDQAGGSLRLRCAASGRNFRWYTMVWYRQAPGKEREFVAAITWSDTSTSYADSVKGRFTISRDNAKNTVYLQMNSLIPEYTAVYYCNAGDKVSSYWYDYWGQGTQVNVSS” it was “low polyreactivity”. In the case of “QVQLVESGGGLDQAGGSLRLSCAASGFIFDYYAMGWYRQAPGKERELVAAISWDGDSTNYADSVKGRFTISRDNAKNTVYLQMNSLKPEDTAVYYCNADEQLVDGWFFRYDYWGQGTQVTVSS” it was “low polyreactivity”; in that of “QVQLVESGGGLDQAGGSLRLSCAASGFIYPVYTMGGYRQAPGKERELVAAITQIGGSTHYADTVKGRFTISRDNAKNTVYLQMNSLKPDETAVYYCNAVPSYGTEYDYWGHGTQVTVSS”, “low polyreactivity”.

In the case of “QVQLVESGGGLDQAGGSLRLSCAASGFTFPWYPMGWYRQAPGKEREMVAAISTGGSTDYADSVKGRFTISRDNAKNTVYLKMNILKPEDTAVYYCNAGYWVRKYYHGGYWGQGTQVTLSS”, the “polyreactivity (PSR sort gate)” value is reported as “high polyreactivity”. Next, “QVQLVESGGGLDQAGGSLRLSCAASGFTFRFYAIGWYRQAPGKERELVAAIDTSGGRTYYADSVKGRFTISRDNANNTVYLQMNSLKPEDTAVYYCNAQVLYRYDYWGQGTQVTVSS”: “high polyreactivity”; “QVQLVESGGGLDQAGGSLRLSCAASGFTFWYYAMGWYRQAPGKERYLVATISSSGGSTYYADSVKGRFTISRDTAMNTVYLQMNSLKPEDTAVYYCNADDNPVWEYDYWGQGTLVTVSS”: “low polyreactivity”; “QVQLVESGGGLDQAGGSLRLSCAASGFTFYWYAMGWYRQAPGKEREFVAAIDQSGGSTYYADSVKGRFTISRDNAKNNVYLQMNSLKPEDTAVYYCAKLYNIGYDYWGLGTQVTVSS”: “low polyreactivity”.

For the sequence “QVQLVESGGGLDQAGGSLRLSCAASGFTLYRNAMGWYRQAPGKERELVAAITSSGGRTYYADSVKGRFTISRDNAKYTVYLQMNSLKPEDTAVYYCAAEFGLGYYYWGQGTQVNVSS”, the “polyreactivity (PSR sort gate)” value is reported as “high polyreactivity”. Next, “QVQLVESGGGLDQAGGSLRLSCAASGFTSYENAMGSYRQAPGKERELVAAITWDGGSTYYADSVKGRFTISRDNAKNTVYFQMNSLKPEDTAVYYCAARQVVYYAYTFDYWGQGTQVTVSS”: “low polyreactivity”. Take “QVQLVESGGGLDQAGGSLRLSCAASGFTSYKYSRGWYRQAPGKETELVAASTGSGSRTFYADSVKGRFTISRDNAKNSFYLLMNSLKPEDTADYYCAARRPLYPERDYWGHGTQVTVSS”: the “polyreactivity (PSR sort gate)” value was “high polyreactivity”.

For the sequence “QVQLVESGGGLDQAGGSLRLSCAASGIFGVNTMGWYRQAPGKERELVASITSGGSTNYADSVKGRFTISRDNAKNTVYLQMNSLKPEDTAVYYCAAGLYLQGPFDYWGQGTQVTVSS”, the “polyreactivity (PSR sort gate)” value is listed as “low polyreactivity”. Next, “QVQLVESGGGLDQAGGSLRLSCAASGIIFSQYAMGWYRQAPGKERELVAGITRSGGSTYYADSVKGRFTISRDNAKNTVYLQMNSLKPEDTAVYYCAAVQRYEYGYWGQGTQVTVSS”: “high polyreactivity”; “QVQLVESGGGLDQAGGSLRLSCAASGITFTFNAMGWYRQAPGKERELVAAISSTTSTKYADSVKGRFTISRDNAKYTVYLQMNSLKPEDTAVYYCAAVEFELRGDYWGQGTQVTVSS”: “low polyreactivity”. “QVQLVESGGGLDQAGGSLRLSCAASGITFYGYAMGWYRQAPGKEREFVAVITSTARTNYADSVKGRFTISRDNAKNTVYLQMNSLKPEDTAVYYCAARRVVRRDRYGSMDYWGQGTQVTVSS”: the “polyreactivity (PSR sort gate)” value is reported as “high polyreactivity”. Next, “QVQLVESGGGLDQAGGSLRLSCAASGITLTANAMGWYRQSPGTERELVAAISRGGSTYYADSVKGRFTISRDNAKNTVYLQMNSVKPEDTQVFYCNKAGGYWYAKRDYDYWGQGTQVTVSS”: “high polyreactivity”. As for “QVQLVESGGGLDQAGGSLRLSCAASGITLTNNAMGWYRQAPGKERELVAAITRSGGSTYYADSVKGRFTISRDNAKNTVYLQMNSLKPEDTAVYCAARWYSYSGSIRSYDYCGQGTQVTVSS”, the “polyreactivity (PSR sort gate)” value is given as “low polyreactivity”. For “QVQLVESGGGLDQAGGSLRLSCAASGLIFRRYAMGWYRQAPGKEREFVAAIRWNGGTTYYADSVKGRFTISRDNAKYTVYLQMNSLKPEDTAVYYCAARVYPAYPRGYDYWGQGTQVTVSS”, the “polyreactivity (PSR sort gate)” value is “high polyreactivity”. On to “QVQLVESGGGLDQAGGSLRLSCAASGLIFYYYALGWYRQAPGKERELVAAISSRGSSTYYADSVKGRFTISRDNAKKTVYLQMNSLKPEDTAVYYCAADSVRKYFGYDYWGQGTQVTVSS”, for which the “polyreactivity (PSR sort gate)” value is reported as “high polyreactivity”. Next, “QVQLVESGGGLDQAGGSLRLSCAASGLTFAKYAMGWYRQAPGKERELVAAIRSGDDTTYADSVKGRFTISRDNAKNTVYLQMNSLKPEDTAVYYCAARYYRTWHGGFGYWGQGTQVTVSS”: “high polyreactivity”. Next, “QVQLVESGGGLDQAGGSLRLSCAASGLTFATYAMGWYRQAPGKERELVAAINGRGASTNYADSVKGRFTISRDNAKNTVYLKMNSLKPEDTAVYYCASRLYRRNKYVLFDYWGQGTQVTVSS”: “high polyreactivity”. In the case of “QVQLVESGGGLDQAGGSLRLSCAASGLTFRYYAMGWYRQAPGKERELVAGISGRGGSTYYADSVKGRFTISRDNAKNTVYLQMNSLKPEDTAVYYCAADYSYGRFRRFDYWGQGTQVNVSS” it was “high polyreactivity”.

(Values after the nanobody polyreactivity screen of Harvey et al. (2022).)
